Changes are numbered by the printed parent chain. Numbers in names are those of the source. Blank lines part the entries; values can stand above or below the binder they belong to.
Assays:
Assay in all cases: ELISA
human CD81 mutant V169A = biological target: T1, human CD81 mutant V169A (human, UniProt P60033 1-236, limits assumed)
T1 construct: as m30; not shown: C-terminal V5 and 6xHis tags
T1 sequence: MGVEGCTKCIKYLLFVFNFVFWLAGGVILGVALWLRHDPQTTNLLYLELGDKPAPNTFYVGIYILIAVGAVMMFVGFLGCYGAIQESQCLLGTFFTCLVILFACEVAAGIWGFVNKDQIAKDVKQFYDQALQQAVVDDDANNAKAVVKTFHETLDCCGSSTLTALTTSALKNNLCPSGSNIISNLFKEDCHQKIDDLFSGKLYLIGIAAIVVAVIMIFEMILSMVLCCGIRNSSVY
Outline: (§1)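 Human CD81 point mutants in pcDNA-DEST40 with C-terminal V5 and 6×His tags were expressed transiently in CHO cells for 48 hours. Membranes were solubilised with 1% n-octylglucoside and loaded at 5 μg/100 μL/well on Ni-NTA His Sorb plates (3 hours, 4° C). Antibody binding (1 hour, room temperature) was detected with HRP anti-human IgG4, TMB and absorbance at 450 nm. Relative binding affinity is the percentage of wild-type CD81 binding, corrected for V5-tag expression.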

human CD81 mutant S168T = biological target: T2, human CD81 mutant S168T (human, UniProt P60033 1-236, limits assumed)
T2 construct: as m30; not shown: C-terminal V5 and 6xHis tags
T2 sequence: T1 sequence with S168T, A169V
Outline: as §1

human CD81 mutant A164T = biological target: T3, human CD81 mutant A164T (human, UniProt P60033 1-236, limits assumed)
T3 construct: as m30; not shown: C-terminal V5 and 6xHis tags
T3 sequence: T1 sequence with A164T, A169V
Outline: as §1

human CD81 mutant V135L = biological target: T4, human CD81 mutant V135L (human, UniProt P60033 1-236, limits assumed)
T4 construct: as m30; not shown: C-terminal V5 and 6xHis tags
T4 sequence: T1 sequence with V135L, A169V
Outline: as §1

human CD81 mutant G158A = biological target: T5, human CD81 mutant G158A (human, UniProt P60033 1-236, limits assumed)
T5 construct: as m30; not shown: C-terminal V5 and 6xHis tags
T5 sequence: T1 sequence with G158A, A169V
Outline: as §1

human CD81 mutant G158S = biological target: T6, human CD81 mutant G158S (human, UniProt P60033 1-236, limits assumed)
T6 construct: as m30; not shown: C-terminal V5 and 6xHis tags
T6 sequence: T1 sequence with G158S, A169V
Outline: as §1

human CD81 mutant V135A = biological target: T7, human CD81 mutant V135A (human, UniProt P60033 1-236, limits assumed)
T7 construct: as m30; not shown: C-terminal V5 and 6xHis tags
T7 sequence: T1 sequence with V135A, A169V
Outline: as §1

human CD81 mutant N172A = biological target: T8, human CD81 mutant N172A (human, UniProt P60033 1-236, limits assumed)
T8 construct: as m30; not shown: C-terminal V5 and 6xHis tags
T8 sequence: T1 sequence with A169V, N172A

- relative binding affinity (human CD81 mutant V169A): < 20%
- relative binding affinity (human CD81 mutant S168T): < 20%
- relative binding affinity (human CD81 mutant A164T): < 20%
- relative binding affinity (human CD81 mutant V135L): < 20%
- relative binding affinity (human CD81 mutant G158A): < 20%
- relative binding affinity (human CD81 mutant G158S): < 20%
- relative binding affinity (human CD81 mutant V135A): < 20%
B1: 002-A07 IgG4 antibody (antibody)
heavy: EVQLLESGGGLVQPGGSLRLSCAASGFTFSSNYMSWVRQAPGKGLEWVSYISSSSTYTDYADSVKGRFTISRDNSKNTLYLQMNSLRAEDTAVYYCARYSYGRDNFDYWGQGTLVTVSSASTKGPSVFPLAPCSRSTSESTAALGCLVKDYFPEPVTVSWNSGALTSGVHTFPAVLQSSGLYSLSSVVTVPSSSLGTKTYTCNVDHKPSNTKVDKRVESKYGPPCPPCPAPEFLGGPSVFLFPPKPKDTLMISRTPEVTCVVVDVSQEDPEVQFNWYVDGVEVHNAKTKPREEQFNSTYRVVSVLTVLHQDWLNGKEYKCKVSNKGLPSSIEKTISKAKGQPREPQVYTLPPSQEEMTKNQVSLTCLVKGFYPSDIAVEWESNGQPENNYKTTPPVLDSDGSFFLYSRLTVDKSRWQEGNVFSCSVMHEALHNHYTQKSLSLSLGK
light: QSVLTQPPSASGTPGQRVTISCTGSTSNIGAGYDTHWYQQLPGTAPKLLIYGNSNRPSGVPDRFSGSKSGTSASLAISGLRSEDEADYYCQSYDTNLSVWVFGGGTKLTVLGQPKAAPSVTLFPPSSEELQANKATLVCLISDFYPGAVTVAWKADSSPVKAGVETTTPSKQSNNKYAASSYLSLTPEQWKSHRSYSCQVTHEGSTVEKTVAPTECS
notes: human IgG4 S228P, lambda light chain

- relative binding affinity (human CD81 mutant N172A): < 20%
B2: 003-D07 (antibody, human IgG4 S228P, lambda, V domains shown)
VH: EVQLLESGGGLVQPGGSLRLSCAASGFTFSSNYMSWVRQAPGKGLEWVSYISSSSTYTDYADSVKGRFTISRDNSKNTLYLQMNSLRAEDTAVYYCARYSYDRDNFDYWGQGTLVTVSS
VL: QSVLTQPFSASGTPGQRVTISCTGSTSNIGAGYDTHWYQHLPGTAPKLLIYGNSNRPSGVPDRFSGSKSGTSASLAISGLRSEDEADYYCQSYDTNLSVWVFGGGTKLTVLG
notes: IgG4 S228P

Source: US20150139990A1 (DAINIPPON SUMITOMO PHARMA, published 2015)
